In assay [1] the target is T1, Human VEGF165R/NP-1 (VEGF165 receptor / neuropilin-1) (human, UniProt O14786 22-923).
T1 construct: 923 amino acid open reading frame; also called clone A2
The assay is described as follows: cross-linking of 125I-VEGF121 to PAE/NP-1 cells, SDS-PAGE, autoradiography. As to the method: The binding was carried out in the presence of 1 μg/ml heparin. […] The cells were lysed and proteins were resolved by 6% SDS-PAGE. The polyacrylamide gel was dried and exposed to X-ray film.

Assay [2] addresses T1, Human VEGF165R/NP-1 (VEGF165 receptor / …). The assay is described as follows: Scatchard analysis of 125I-VEGF165 binding to independently generated PAE/NP-1 clones.
Assay [3] has as its target T2, Human NP-2 (neuropilin-2) (human, UniProt O60462 21-931).
T2 sequence: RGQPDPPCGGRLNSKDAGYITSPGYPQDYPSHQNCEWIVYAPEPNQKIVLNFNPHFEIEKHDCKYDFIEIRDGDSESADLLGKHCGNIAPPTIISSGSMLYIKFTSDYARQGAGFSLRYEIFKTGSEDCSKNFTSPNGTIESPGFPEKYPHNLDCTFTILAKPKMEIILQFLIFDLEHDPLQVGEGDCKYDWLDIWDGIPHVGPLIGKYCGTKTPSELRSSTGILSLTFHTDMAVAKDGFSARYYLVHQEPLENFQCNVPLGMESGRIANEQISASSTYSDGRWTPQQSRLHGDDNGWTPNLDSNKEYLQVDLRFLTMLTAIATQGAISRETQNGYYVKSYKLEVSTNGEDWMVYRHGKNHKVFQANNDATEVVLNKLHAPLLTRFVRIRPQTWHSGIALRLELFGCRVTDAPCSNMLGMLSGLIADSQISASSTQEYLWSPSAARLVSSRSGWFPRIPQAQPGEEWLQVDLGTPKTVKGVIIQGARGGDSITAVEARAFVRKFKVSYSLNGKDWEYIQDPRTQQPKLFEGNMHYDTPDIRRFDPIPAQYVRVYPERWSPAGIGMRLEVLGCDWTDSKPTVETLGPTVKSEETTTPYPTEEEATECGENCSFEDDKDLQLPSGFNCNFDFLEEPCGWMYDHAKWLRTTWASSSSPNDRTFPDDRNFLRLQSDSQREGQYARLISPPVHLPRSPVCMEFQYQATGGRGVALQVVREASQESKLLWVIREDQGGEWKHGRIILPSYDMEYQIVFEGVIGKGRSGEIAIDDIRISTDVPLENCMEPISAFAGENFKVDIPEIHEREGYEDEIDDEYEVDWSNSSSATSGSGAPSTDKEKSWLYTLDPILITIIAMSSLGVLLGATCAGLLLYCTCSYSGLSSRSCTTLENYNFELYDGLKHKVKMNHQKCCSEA
The assay is described as follows: expression cloning: COS-7 cells transfected with single clones screened for 125I-VEGF165 binding (seven positive clones, one of them NP-2).
Procedure: The E. coli were sub-divided into 50 separate pools and plated onto 50 LB ampicillin dishes, with each pool representing approximately 100 clones. […] The seven positive plasmid clones were amplified and their DNA was analyzed by restriction enzyme digestion. […] One clone from each group was submitted for automated DNA sequencing.

For assay [4], the target named is T1, Human VEGF165R/NP-1 (VEGF165 receptor / …). The assay is described as follows: cell-based or functional assay.
Assay [5] shares this target. The assay is described as follows: Scatchard analysis (LIGAND program) of 125I-VEGF165 binding to PAE/NP-1 cells.

B1: Human recombinant VEGF121 (ligand, UniProt P15692-9 27-147, looked up)
chain: APMAEGGGQNHHEVVKFMDVYQRSYCHPIETLVDIFQEYPDEIEYIFKPSCVPLMRCGGCCNDEGLECVPTEESNITMQIMRIKPHQGQHIGEMSFLQHNKCECRPKKDRARQEKCDKPRR
modifications: radio-iodinated (125I, IODO-BEADS)
notes: mature
On to B1, for which the binding result in assay [1] is on record as “no binding (tested: 10 ng/ml)”.

B2: Human recombinant VEGF165 (ligand, UniProt P15692-4 27-191, looked up)
chain: APMAEGGGQNHHEVVKFMDVYQRSYCHPIETLVDIFQEYPDEIEYIFKPSCVPLMRCGGCCNDEGLECVPTEESNITMQIMRIKPHQGQHIGEMSFLQHNKCECRPKKDRARQENPCGPCSERRKHLFVQDPQTCKCSCKNTDSRCKARQLELNERTCRCDKPRR
modifications: radio-iodinated (125I, IODO-BEADS) in the binding and cross-linking experiments; unlabelled when coupled to Sepharose or used as competitor
notes: mature
As to B2, the results for the Kd in assay [2] and in assay [5] were 0.3 nM and 0.32 nM, respectively. The binding result in assay [3] is given as “binds”. Moreover, the “231 breast carcinoma cell motility (Boyden chamber motility assay)” value in assay [4] stood at 2 fold.
